According to patent US20230220056A1 (KOOKMIN UNIVERSITY INDUSTRY ACADEMY COOPERATION FOUNDATION, published 2023):
Where a chain is given by its changes, count along the chain named. Blank lines part the entries; values can stand above or below the binder they belong to.

Assays:
recombinant human GRP94 [1] = target: T1, recombinant human GRP94 (human, UniProt P14625 22-799, limits assumed); experiment: ELISA, 100 ng rhGRP94 coated per well, IgG 0-500 nM; no unit beside the value, concentration axis in nM and the dotted drop line meets it at about 0.15
T1 construct: also called rhGRP94; glucose-regulated protein 94
Description: (§1) Each well of 96-well plates was coated with 0.1 μg of recombinant human GRP94 (rhGRP94), blocked with 3% (w/v) bovine serum albumin (BSA) in phosphate buffered saline (PBS) for 2 hours at 37° C., and incubated with 100 μL of GRP94 targeting IgG (20 μg/mL) for 2 hours at 37° C. The plates were washed thrice with 0.05% PBS-T, and 100 μL of a 500:1 dilution of the secondary antibody anti-human Fc Ab (Sigma-Aldrich) was added to each well. Incubation at 37° C. for 1 hour was followed by three rounds of washing with 0.05% PBS-T. Then, 100 μL of 3,3′,5,5′-tetramethylbenzidine (1-step ultra TMB) substrate solution was added to each well. Finally, optical densities were measured at 450 nm using a microplate reader (Synergy H1, BioTek).
(§2) In this regard, each well of 96-well plates was coated with 100 ng of rhGRP94 and blocked with 3% (w/v) bovine serum albumin (BSA) in PBS at 37° C. for 2 hours. Next, the plates were incubated with a concentration gradient of 0 nM to 500 nM of each clone for the GRP94 IgGs at 37° C. for 2 hours. The use of a secondary antibody and the measurement of optical density were conducted as described for the ELISA.

recombinant human GRP94 [2] = target: T1, recombinant human GRP94; experiment: ELISA, 100 ng rhGRP94 coated per well, IgG 0-500 nM; no unit beside the value, concentration axis in nM and the dotted drop line meets it at about 0.5
Description: as §1, §2

recombinant human GRP94 [3] = target: T1, recombinant human GRP94; experiment: ELISA, 100 ng rhGRP94 coated per well, IgG 0-500 nM; no unit beside the value, concentration axis in nM and the dotted drop line meets it at about 0.1
Description: as §1, §2

recombinant human GRP94 [4] = target: T1, recombinant human GRP94; experiment: ELISA, 100 ng rhGRP94 coated per well, IgG 0-500 nM; no unit beside the value, concentration axis in nM and the dotted drop line meets it at about 1.2
Description: as §1, §2

T1 sequence (P14625 22-799 limits assumed): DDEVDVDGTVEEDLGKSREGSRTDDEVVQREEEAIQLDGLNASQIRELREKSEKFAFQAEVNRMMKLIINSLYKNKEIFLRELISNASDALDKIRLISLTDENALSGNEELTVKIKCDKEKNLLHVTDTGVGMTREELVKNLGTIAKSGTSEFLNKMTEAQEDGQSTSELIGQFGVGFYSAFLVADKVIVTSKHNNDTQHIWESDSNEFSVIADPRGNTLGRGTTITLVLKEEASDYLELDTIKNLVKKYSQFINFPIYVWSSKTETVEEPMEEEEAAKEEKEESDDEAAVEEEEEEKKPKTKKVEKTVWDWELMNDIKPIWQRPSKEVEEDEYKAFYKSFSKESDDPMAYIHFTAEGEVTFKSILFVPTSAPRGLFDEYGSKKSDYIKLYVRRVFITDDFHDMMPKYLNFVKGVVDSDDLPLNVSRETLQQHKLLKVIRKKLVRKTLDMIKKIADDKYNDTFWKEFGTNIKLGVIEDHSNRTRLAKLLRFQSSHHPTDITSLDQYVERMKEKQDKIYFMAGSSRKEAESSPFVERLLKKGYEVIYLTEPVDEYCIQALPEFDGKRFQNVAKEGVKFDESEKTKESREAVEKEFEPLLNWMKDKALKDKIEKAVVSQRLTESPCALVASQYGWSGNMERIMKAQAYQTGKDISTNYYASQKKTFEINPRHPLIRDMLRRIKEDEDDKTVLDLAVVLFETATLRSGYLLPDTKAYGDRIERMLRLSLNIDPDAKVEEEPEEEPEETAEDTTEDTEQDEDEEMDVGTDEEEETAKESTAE

Kd (recombinant human GRP94 [1]): 0.142 nM
B1: anti-GRP94 human IgG antibody 2H5 (antibody, V domains shown)
VH: EVQLLESGGGLVQPGGSLRLSCAASGFTFSGYAMSWVRQAPGKGLEWVSAISHGGSSKYYADSVKGRFTISRDNSKNTLYLQMNSLRAEDTAVYYCAKDLLSPLQSIGSYDDAMDVWGQGTLVTVSS
VL: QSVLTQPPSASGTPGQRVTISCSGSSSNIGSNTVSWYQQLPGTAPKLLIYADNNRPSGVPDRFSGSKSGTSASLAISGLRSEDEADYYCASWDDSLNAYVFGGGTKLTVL
notes: Tested as whole human IgG; also called GRP94 IgG 2H5

Kd (recombinant human GRP94 [2]): 0.467 nM
B2: anti-GRP94 human IgG antibody B5 (antibody, V domains shown)
VH: EVQLLESGGGLVQPGGSLRLSCAASGFTFSNYYMSWVRQAPGKGLEWVSGIYPNSGSTYYADSVKGRFTISRDNSKNTLYLQMNSLRAEDTAVYYCARDPLHPARFPFDYWGQGTLVTVSS
VL: QSVLTQPPSASGTPGQRVTISCTGSSSNIGNNAVSWYQQLPGTAPKLLIYADSHRPSGVPDRFSGSKSGTSASLAISGLRSEDEADYYCGAWDASLNAYVFGGGTKLTVL
notes: Tested as whole human IgG made from the selected scFv's VH and VL genes in pcDNA3.1 / Expi293 cells; also called GRP94 IgG B5

Kd (recombinant human GRP94 [3]): 0.0997 nM
B3: anti-GRP94 human IgG antibody E5 (antibody, V domains shown)
VH: EVQLLESGGGLVQPGGSLRLSCAASGFTFSNYAMSWVRQAPGKGLEWVSGISSSSGSTYYADSVKGRFTTSRDNSKNTLYLQMNSLRAEDTAVYYCARDRHPFSPNWFDYWGQGTLVTVSS
VL: B2 VL with T23S, S26P, N31S, A33T, S35T, G90A, A91S, A94D, A98G
notes: Tested as whole human IgG; also called GRP94 IgG E5

Kd (recombinant human GRP94 [4]): 1.21 nM
B4: anti-GRP94 human IgG antibody 3G7 (antibody, V domains shown)
VH: EVQLLESGGGLVQPGGSLRLSCAASGFTFSNYSMSWVRQAPGKGLEWVSGIYYGSGNKYYADSVKGRFTISRDNSKNTLYLQMNSLRAEDTAVYYCAKNLASFDYWGQGTLVTVSS
VL: B2 VL with T23S, N31S, A33S, S35N, A51S, D52N, A91T, A94S, N97S, A98G
notes: Tested as whole human IgG; also called GRP94 IgG 3G7
